Ends that are not written are not given here.

One assay addresses T1, fibrinogen (Homo sapiens, UniProt P02675+P02679).
T1 construct: purchased Scottish National Blood Transfusion Service
Put plainly: Fibrinogen binding assay: FITC-labelled anti-human fibrinogen antibody, flow cytometry. The conditions noted are these: for Percent positive (percentage of microspheres positive for fibrinogen): flow cytometry, FITC rabbit anti-human fibrinogen antibody; for Median fluorescence intensity: measure of the amount of fibrinogen bound to the microspheres. The protocol: 2. Fibrinogen Binding Assay
(i) 5 μl of a suspension of artificial platelets obtained from step (iv) of method 1 above was added to 50 μl of HEPES buffered saline containing 1 μl of FITC-labelled rabbit antibody to human fibrinogen (DakoCytomation; F0111). The mixture was incubated at 20° C. for 20 minutes. Blank microspheres (without DTNB treatment or peptide) or a cysteine control sample were used as a negative control for these assays.
(ii) After 20 minutes the reaction was stopped by the addition of 0.5 ml saline. After a further 10 minutes, the sample was diluted 1/10 in saline and analysed in a Flow Cytometer (e.g. Coulter XL-MCL Flow Cytometer).
(iii) Data were recorded as the percentage of microspheres positive for fibrinogen and the median fluorescence intensity of the particles. The latter is a measure of the amount of fibrinogen bound to the microspheres and is in arbitrary units (log scale).

For assay [1], the target named is fibrinogen (human) (UniProt P02671). Put plainly: flow cytometry, FITC anti-human fibrinogen; albumin microspheres without peptide, coated directly with 10 mg/ml fibrinogen at pH 6.0.
fibrinogen (human), sequence (P02671 20-629 limits assumed, chain 1 of 3): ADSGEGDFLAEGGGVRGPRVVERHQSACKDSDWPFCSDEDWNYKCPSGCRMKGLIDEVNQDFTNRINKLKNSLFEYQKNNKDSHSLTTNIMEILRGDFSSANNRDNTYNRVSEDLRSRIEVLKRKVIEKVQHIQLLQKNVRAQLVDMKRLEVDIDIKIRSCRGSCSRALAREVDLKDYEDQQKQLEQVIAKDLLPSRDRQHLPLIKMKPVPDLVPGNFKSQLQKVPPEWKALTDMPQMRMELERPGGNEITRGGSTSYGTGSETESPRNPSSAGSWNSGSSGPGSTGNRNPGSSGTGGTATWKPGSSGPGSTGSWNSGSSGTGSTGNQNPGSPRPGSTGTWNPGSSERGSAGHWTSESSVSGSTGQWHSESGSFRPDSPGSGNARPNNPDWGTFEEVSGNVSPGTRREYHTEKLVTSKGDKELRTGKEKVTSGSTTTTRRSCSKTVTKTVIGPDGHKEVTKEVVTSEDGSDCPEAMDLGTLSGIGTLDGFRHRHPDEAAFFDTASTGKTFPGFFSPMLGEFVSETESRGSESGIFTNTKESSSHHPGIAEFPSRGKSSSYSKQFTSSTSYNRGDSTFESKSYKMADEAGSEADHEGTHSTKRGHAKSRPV
fibrinogen (human), sequence (P02675 31-491 limits assumed, chain 2 of 3, further chain): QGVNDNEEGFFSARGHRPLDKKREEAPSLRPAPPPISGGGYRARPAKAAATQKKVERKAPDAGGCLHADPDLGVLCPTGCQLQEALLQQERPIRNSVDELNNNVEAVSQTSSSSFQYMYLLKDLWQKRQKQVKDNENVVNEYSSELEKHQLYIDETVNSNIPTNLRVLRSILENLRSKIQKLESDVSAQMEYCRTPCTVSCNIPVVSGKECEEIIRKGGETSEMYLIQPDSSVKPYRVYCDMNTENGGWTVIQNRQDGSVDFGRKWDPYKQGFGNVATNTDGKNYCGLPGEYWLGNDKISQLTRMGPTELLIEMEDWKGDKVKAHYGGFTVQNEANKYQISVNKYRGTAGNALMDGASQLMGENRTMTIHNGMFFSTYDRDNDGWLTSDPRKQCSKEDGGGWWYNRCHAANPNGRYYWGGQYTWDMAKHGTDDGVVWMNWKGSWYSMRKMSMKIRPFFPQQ
fibrinogen (human), sequence (P02679 other isoform, or with tags, fused parts or gaps limits assumed, chain 3 of 3, further chain): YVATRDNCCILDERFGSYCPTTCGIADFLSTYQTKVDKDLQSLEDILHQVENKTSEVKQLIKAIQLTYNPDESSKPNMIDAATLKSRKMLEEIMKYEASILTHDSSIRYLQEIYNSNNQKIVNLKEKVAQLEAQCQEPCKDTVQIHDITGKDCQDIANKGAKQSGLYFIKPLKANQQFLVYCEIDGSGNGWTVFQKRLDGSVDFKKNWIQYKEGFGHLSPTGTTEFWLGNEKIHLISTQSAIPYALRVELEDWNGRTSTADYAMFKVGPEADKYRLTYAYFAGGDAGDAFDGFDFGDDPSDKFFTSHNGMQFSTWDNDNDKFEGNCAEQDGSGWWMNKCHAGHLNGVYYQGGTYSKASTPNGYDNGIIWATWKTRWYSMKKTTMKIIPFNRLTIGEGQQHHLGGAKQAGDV
The target is the same in assay [2]. The experiment in a line: flow cytometry, FITC anti-human fibrinogen; albumin microspheres without peptide, fibrinogen bound directly to the surface.
Assay [3] deals with platelets. The conditions noted are these: purified peptide; cited from earlier work.
A further assay concerns thrombin. The experiment in a line: Response of products to thrombin in platelet-free plasma (light transmission aggregometer). It is filed as biochemical, human. The conditions noted are these: increase in light transmission over 20 minutes, mean ± sd of 4 experiments. As for the experimental part:
Cross-linking of the agent of the invention via fibrin-fibrin bridging can be tested in a modified aggregation assay, for example, a protocol based on Levi et al, 1999, Nature Medicine, […], 107-111. The method that we used is reported below.
The assay was performed using a light transmission aggregometer (we used a PAP4 aggregometer (BioData Corporation)). […] Aggregation of the microspheres causes an increase in light transmission, which can be recorded as percentage “aggregation” relative to plasma alone.
The microspheres can be counted using a particle counter such as a Flow cytometer (e.g. Beckman Coulter MCL-XL) or Coulter Z2.
(ii) Platelet-free plasma was prepared by centrifuging blood for 30 minutes at 1500× g and collecting the supernatant.
(iii) 350 μl platelet-free plasma was placed in an aggregometer cuvette and 50 μl of blank microspheres were added. […]

In assay [4] the test system is platelets. Put plainly: Platelet aggregation in platelet-depleted plasma by counting single platelets in a flow cytometer. It is filed as cell-based, human. The conditions noted are these: mean ± sd of 3 experiments; for Percentage aggregation in the absence of ADP: inactive platelets, percentage loss of single CD42b-positive platelets from the gate; for Percentage aggregation in the presence of ADP: platelets activated with sub-optimal ADP, percentage loss of single CD42b-positive platelets. The protocol:
3.2 Preparation of Platelet-Depleted Plasma
(i) Two tubes of blood were collected into tri-sodium citrate anticoagulant, by clean venepuncture via a 21 gauge butterfly needle. The blood was processed within 10 minutes of collection, to minimise platelet activation in vitro.
(ii) One tube of blood was centrifuged at 150× g for 20 minutes at 20° C. to prepare platelet rich plasma (PRP).
(iii) A second tube of blood was centrifuged at 1500× g for 30 minutes at 20° C. to prepare platelet poor plasma (PPP).
(iv) The PRP was removed from the blood cell fraction and mixed with the PPP to achieve a platelet count of between 10 and 50×10^6 platelets/ml.
4.1 Method for Measuring Aggregation by Counting in a Flow Cytometer
Flow cytometry can be used to count the number of residual single platelets, and thereby to calculate the percentage of platelets that have bound to artificial platelets. The sample is analysed by the forward and side scatter and an electronic gate is set around the population of single platelets. To do this a sample of platelet-rich plasma is used that contains EDTA to prevent platelet-platelet aggregation occurring. The platelets are labelled with a fluorescently-conjugated antibody such as a CD42b monoclonal that binds to the GPIb receptor on all platelets.
As aggregation occurs the number of platelets within the gate declines. The artificial platelets should not induce aggregation of non-activated (“resting”) platelets. If, however, the platelets are activated, for example by ADP they should aggregate with the artificial platelets. In this assay a sub-optimal concentration of ADP is used to distinguish the effects of the artificial platelets in platelet-deficient plasma.
(i) To set the platelet gate, whole blood that had been collected into EDTA was used. 5 μl of EDTA anticoagulated blood was added to 50 μl Hepes-buffered saline and analysed by forward and side scatter in a flow cytometer (e.g. Beckman Coulter MCL-XL). A gate was set around the platelet population so that>98% of the single platelets are contained within the platelet gate.
(ii) 400 μL of platelet-depleted plasma, with a platelet count of 10-60×10^6/ml, was mixed with 20 μL of control microspheres (blank capsules as disclosed in Example 1, Method 1 (i)) at 10 mg albumin/ml and ADP was added at final concentrations of between 1 and 4×10^−5 M. The sample was stirred at 900 rpm at 37° C. in an aggregometer cuvette for up 10 minutes and aggregation was measured as the change in light transmission (as described in section 4.2 below). The ADP concentration that gave>0% and<20% aggregation was used for the subsequent analysis of the interaction of the product with platelet-depleted plasma.
(iii) To test the products, 400 μL of platelet-depleted plasma, with a platelet count of 10-60×10^6/ml, was mixed with 20 μL of test microspheres at 10 mg albumin/ml and ADP at a concentration determined as described above. The sample was mixed at 900 rpm for up to 10 minutes. At appropriate times 5 μl aliquots were removed for flow cytometric analysis as follows.
(iv) For the analysis 5 μl of test sample was added to 50 μ1 Hepes-buffered saline containing an appropriate concentration of a fluorescently-conjugated antibody to an antigen present on all platelets. We used 1 μl of an RPE-conjugated CD42b monoclonal antibody (we used antibody 555473 provided by BD Harlingen). The sample was incubated for 20 minutes at room temperature (typically 20° C. ) then diluted with 0.5 ml formyl saline (0.2% formalin in 0.9% NaCl).
(v) The diluted sample was then analysed by forward and side scatter in a flow cytometer (e.g. Beckman Coulter MCL-XL) using the gate set around the platelet population in the control sample (see 4.1.i), allowing a fixed volume of sample (e.g. 20 μl) to pass through the cytometer. Particles enclosed in the platelet gate were analysed for fluorescence to identify the number of single platelets within the gate. […]

For assay [5], the system named is platelets. The experiment in a line: Platelet aggregation in platelet-depleted plasma by light transmission (PAP-4 aggregometer). It counts as cell-based, human. The protocol: 4.2 Method for Measuring Aggregation by Light Transmission Using the PAP-4 Platelet Aggregometer
In this system the product was mixed with platelet-depleted plasma in a stirred system at […] and aggregation was measured by a change in light transmission.
(i) 400 μl of platelet-depleted plasma was mixed with 20 μl of blank microspheres at 10 mg albumin/ml.
(ii) ADP was added at concentrations between 1 and 4×10^−5M
(iii) Aggregation was measured over 20 minutes and recorded as the percentage of maximum using autologous plasma to set the value for 100% aggregation.

The target of assay [6] is fibrinogen (human) (UniProt P02671). The experiment in a line: flow cytometry of peptide-linked albumin microspheres incubated with 3 mg fibrinogen per ml, detected with FITC rabbit anti-human fibrinogen.
Where [7] appears, read: listed as peptide-coupled microspheres.

T1 sequence (P02671 20-629 partner limits assumed): as the sequence (P02671 20-629 limits assumed, chain 1 of 3) above
T1 sequence (P02675 31-491): as the sequence (P02675 31-491 limits assumed, chain 2 of 3, further chain) above
T1 sequence (P02679 27-437 isoform P02679-2 limits assumed): as the sequence (P02679 other isoform, or with tags, fused parts or gaps limits assumed, chain 3 of 3, further chain) above

Regarding “Peptide Gly^n = 3: albumin microspheres with bound peptide GPRPGGGC, incubated with 3 mg fibrinogen”, in the assay with fibrinogen, the “Percent positive (percentage of microspheres positive for fibrinogen)” value was 94% and the Median fluorescence intensity is 28 arbitrary units (log scale).

As to “human albumin microspheres of the reference batch (fibrinogen bound directly to the surface, method of WO 98/17319) (from UniProt P02768 25-609)”, in the assay with fibrinogen (human) [1], the Median fluorescence intensity (arbitrary units (log scale)) is 22 and the Percent positive was 94%. For the same molecule, in the assay with fibrinogen (human) [2], the Median fluorescence intensity (arbitrary units (log scale)) came out at 22.4 and the Percent positive turned out to be 94.7%.

For the molecule “Peptide Gly^n = 6: albumin microspheres with bound peptide GPRPGGGGGGC, incubated with 3 mg fibrinogen”, in the assay with fibrinogen, the “Percent positive (percentage of microspheres positive for fibrinogen)” value is listed as 95% and the Median fluorescence intensity was 26 arbitrary units (log scale).

On to TDVNGDGRHDL [Product B12], for which the “Effect on platelet aggregation” value with platelets [3] is given as “caused inhibition of platelet aggregation”.

For the molecule “Peptide Gly^n = 0: albumin microspheres with bound peptide GPRPC, incubated with 3 mg fibrinogen”, in the assay with fibrinogen, the “Percent positive (percentage of microspheres positive for fibrinogen)” value is given as 6% and the Median fluorescence intensity was 2.4 arbitrary units (log scale).

Regarding “Product 2: albumin microspheres with peptide GPRPGGGGGGC bound, without fibrinogen”, the “Percentage aggregation in the absence of thrombin” value with thrombin is recorded as 4.75 ± 4.4%; in the assay with thrombin (listed as 0 mg/ml), 4.25 ± 4.93%. Further, the “Percentage aggregation in the absence of ADP” value is reported as 17.8 ± 3.5% in the assay with platelets [4], 17.9 ± 3.45% in the assay on platelets [4] (listed as 0 mg/ml) and 17.8±3.5% in the assay with platelets [4] (setting [7]). Also, the “Percentage aggregation in the presence of ADP” value in the assay on platelets [4] was 57.3 ± 9.3%; with platelets [4] (listed as 0 mg/ml), 57.6 ± 7.64%; in the assay with platelets [4] (setting [7]) it was 57.3±9.3%. The “Aggregation in the absence of ADP (aggregometry)” value in the assay on platelets [5] was “only low levels of aggregation”. Further, the “Percent positive (percentage of microspheres positive for fibrinogen)” value amounted to 13.1% in the assay with fibrinogen and 0% in the assay with fibrinogen (listed as 0 mg/ml). In addition, the Median fluorescence intensity is 1.6 arbitrary units (log scale) with fibrinogen and 0 arbitrary units (log scale) in the assay with fibrinogen (listed as 0 mg/ml).

B1: peptide GPRPC linked to human albumin microspheres (peptide)
peptide: GPRPC
modifications: also: Cys5 thiol bound to human albumin microspheres (DTNB-activated thiol)
In the assay with fibrinogen (human) [6], B1 came in with a Median fluorescence intensity (arbitrary units (log scale)) of 2.4 and a Percent positive of 6%.

The values are drawn from US20080064628A1, “Fibrinogen Targetting Microparticles For Promoting Haemostasis” (Haemostatix Limited, priority 2003, published 2008).
